One assay deals with T1, GST-tagged FBP1 (UniProt P09467 1-338).
T1 construct: fructose-1,6-bisphosphatase 1 (FBP1); also called GST-FBP1; source: E. coli BL21 (DE3), purified
T1 sequence (looked up): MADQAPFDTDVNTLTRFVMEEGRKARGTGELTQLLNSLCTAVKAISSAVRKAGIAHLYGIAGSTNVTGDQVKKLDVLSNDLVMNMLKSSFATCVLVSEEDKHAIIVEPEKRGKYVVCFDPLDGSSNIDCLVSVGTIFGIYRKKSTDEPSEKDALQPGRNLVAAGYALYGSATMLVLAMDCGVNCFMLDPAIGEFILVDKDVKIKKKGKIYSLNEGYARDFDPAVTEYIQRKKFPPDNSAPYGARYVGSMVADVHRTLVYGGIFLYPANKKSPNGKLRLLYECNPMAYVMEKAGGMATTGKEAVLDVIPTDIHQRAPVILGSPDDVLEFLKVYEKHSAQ
The assay can be described thus: pull-down; GST pull-down: purified GST-tagged protein (or GST) mixed with His-tagged protein, both expressed in E. coli BL21 (DE3). The note with it: both partners purified.

The next assay deals with T2, GST-tagged p65 (UniProt Q04206 1-551).
T2 construct: NF-κB p65 (RelA); also called GST-p65; source: E. coli BL21 (DE3), purified
The description is as above. The note with it: both partners purified.

Experimental findings from publication PMC7392005, “Fructose-1, 6-bisphosphatase 1 interacts with NF-κB p65 to regulate breast tumorigenesis via PIM2 induced phosphorylation” (Theranostics, 2020) are described below.

T2 sequence (Q04206 whole entry): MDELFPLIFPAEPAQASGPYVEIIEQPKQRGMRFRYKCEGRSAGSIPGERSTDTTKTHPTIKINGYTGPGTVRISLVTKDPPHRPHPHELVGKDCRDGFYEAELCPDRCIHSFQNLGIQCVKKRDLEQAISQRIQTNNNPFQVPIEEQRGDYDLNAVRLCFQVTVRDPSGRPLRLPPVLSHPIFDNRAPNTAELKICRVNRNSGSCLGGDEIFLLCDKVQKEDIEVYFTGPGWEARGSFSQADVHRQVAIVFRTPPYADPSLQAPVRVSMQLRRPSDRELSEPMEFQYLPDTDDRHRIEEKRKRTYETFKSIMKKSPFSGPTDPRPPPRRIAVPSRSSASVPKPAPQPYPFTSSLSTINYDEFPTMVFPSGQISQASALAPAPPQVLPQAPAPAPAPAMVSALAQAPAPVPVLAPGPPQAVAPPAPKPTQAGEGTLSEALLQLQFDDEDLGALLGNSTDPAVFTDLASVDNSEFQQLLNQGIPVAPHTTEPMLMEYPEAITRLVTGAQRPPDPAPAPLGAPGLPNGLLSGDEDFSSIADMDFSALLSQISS

B1: His-tagged PIM2 (enzyme)
chain: not shown
notes: serine/threonine kinase PIM2; also called His-PIM2; source: E. coli BL21 (DE3), purified
On to B1, for which the binding result with GST-tagged FBP1 is “binds”.

B2: His-tagged FBP1 (enzyme, UniProt P09467 1-338, looked up)
chain: MADQAPFDTDVNTLTRFVMEEGRKARGTGELTQLLNSLCTAVKAISSAVRKAGIAHLYGIAGSTNVTGDQVKKLDVLSNDLVMNMLKSSFATCVLVSEEDKHAIIVEPEKRGKYVVCFDPLDGSSNIDCLVSVGTIFGIYRKKSTDEPSEKDALQPGRNLVAAGYALYGSATMLVLAMDCGVNCFMLDPAIGEFILVDKDVKIKKKGKIYSLNEGYARDFDPAVTEYIQRKKFPPDNSAPYGARYVGSMVADVHRTLVYGGIFLYPANKKSPNGKLRLLYECNPMAYVMEKAGGMATTGKEAVLDVIPTDIHQRAPVILGSPDDVLEFLKVYEKHSAQ
notes: fructose-1,6-bisphosphatase 1 (FBP1); also called His-FBP1; source: E. coli BL21 (DE3)
As for B2, the binding result in the assay with GST-tagged p65 is listed as “binds”.
